This note sets out measurements from publication PMC4346865.

In data set [1] the target is T1, alpha toxin (alpha-hemolysin) (Staphylococcus aureus, UniProt P09616 27-319). The data set can be described thus: SPR; […] (pH not stated); SPR temperature not stated; […]. The settings on record: protein: commercial; stem-loop (Mfold). On the technique in general: In SPR one partner is held on a chip, and binding of the other changes the refractive index at the surface.

Data set [2] has as its target T1, alpha toxin (alpha-hemolysin). As to the kind of experiment: SPR; assay 1; […] (pH not stated); SPR temperature not stated; […]. The settings on record: protein: commercial; stem-loop (Mfold).
Data set [3] shares this target. As to the kind of experiment: SPR; assay 2; […] (pH not stated); SPR temperature not stated; […]. As to conditions: protein: commercial; stem-loop (Mfold).
In the next data set the target is cholera toxin (UniProt P01555;P01556 19-258;22-124). The data set can be described thus: […] (pH not stated); SPR temperature not stated; […]. The settings on record: protein: commercial; copies: 1;5; stem-loop (Mfold).
Data set [4] concerns the target T1, alpha toxin (alpha-hemolysin). The description is as above. The settings on record: protein: commercial; stem-loop (Mfold).
Another data set deals with toxin B (UniProt P18177 2-2366). Described as above. As to conditions: protein: commercial; stem-loop (Mfold).
The target of a further data set is exotoxin A (UniProt P11439 26-638). As to the kind of experiment: fluorescence plate binding; p = 0.004; […] (pH not stated); SPR temperature not stated; […]. As to conditions: protein: commercial; stem-loop (Mfold).

“And” between values parts separate entries of the source, which are not always exact repeats. Equal entries are not always repeated.

T1 sequence (P09616 27-319): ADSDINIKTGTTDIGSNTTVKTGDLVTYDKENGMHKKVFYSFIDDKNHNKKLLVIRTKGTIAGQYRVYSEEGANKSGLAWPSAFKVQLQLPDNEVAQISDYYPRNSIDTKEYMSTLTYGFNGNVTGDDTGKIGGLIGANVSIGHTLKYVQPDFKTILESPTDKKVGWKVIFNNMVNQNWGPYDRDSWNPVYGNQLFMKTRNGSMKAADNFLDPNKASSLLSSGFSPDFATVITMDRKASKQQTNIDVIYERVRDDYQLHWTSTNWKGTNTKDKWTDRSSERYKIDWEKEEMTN
exotoxin A, sequence (P11439 26-638): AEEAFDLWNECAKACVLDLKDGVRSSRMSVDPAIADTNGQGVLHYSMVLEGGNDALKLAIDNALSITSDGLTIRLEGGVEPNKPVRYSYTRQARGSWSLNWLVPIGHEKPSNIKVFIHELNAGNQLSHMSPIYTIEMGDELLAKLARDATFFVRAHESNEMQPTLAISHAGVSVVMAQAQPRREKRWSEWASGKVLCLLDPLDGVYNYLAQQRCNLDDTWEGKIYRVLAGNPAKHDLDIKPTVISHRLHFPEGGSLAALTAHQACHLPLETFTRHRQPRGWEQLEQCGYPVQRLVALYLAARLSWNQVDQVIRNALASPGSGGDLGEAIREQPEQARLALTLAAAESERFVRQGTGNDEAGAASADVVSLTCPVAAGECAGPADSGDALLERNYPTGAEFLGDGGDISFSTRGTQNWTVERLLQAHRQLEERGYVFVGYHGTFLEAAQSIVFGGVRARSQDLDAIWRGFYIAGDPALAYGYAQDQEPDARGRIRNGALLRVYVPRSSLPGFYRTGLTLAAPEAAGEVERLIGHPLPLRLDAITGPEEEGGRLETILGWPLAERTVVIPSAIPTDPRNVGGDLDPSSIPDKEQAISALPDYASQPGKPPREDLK
toxin B, sequence (P18177 2-2366): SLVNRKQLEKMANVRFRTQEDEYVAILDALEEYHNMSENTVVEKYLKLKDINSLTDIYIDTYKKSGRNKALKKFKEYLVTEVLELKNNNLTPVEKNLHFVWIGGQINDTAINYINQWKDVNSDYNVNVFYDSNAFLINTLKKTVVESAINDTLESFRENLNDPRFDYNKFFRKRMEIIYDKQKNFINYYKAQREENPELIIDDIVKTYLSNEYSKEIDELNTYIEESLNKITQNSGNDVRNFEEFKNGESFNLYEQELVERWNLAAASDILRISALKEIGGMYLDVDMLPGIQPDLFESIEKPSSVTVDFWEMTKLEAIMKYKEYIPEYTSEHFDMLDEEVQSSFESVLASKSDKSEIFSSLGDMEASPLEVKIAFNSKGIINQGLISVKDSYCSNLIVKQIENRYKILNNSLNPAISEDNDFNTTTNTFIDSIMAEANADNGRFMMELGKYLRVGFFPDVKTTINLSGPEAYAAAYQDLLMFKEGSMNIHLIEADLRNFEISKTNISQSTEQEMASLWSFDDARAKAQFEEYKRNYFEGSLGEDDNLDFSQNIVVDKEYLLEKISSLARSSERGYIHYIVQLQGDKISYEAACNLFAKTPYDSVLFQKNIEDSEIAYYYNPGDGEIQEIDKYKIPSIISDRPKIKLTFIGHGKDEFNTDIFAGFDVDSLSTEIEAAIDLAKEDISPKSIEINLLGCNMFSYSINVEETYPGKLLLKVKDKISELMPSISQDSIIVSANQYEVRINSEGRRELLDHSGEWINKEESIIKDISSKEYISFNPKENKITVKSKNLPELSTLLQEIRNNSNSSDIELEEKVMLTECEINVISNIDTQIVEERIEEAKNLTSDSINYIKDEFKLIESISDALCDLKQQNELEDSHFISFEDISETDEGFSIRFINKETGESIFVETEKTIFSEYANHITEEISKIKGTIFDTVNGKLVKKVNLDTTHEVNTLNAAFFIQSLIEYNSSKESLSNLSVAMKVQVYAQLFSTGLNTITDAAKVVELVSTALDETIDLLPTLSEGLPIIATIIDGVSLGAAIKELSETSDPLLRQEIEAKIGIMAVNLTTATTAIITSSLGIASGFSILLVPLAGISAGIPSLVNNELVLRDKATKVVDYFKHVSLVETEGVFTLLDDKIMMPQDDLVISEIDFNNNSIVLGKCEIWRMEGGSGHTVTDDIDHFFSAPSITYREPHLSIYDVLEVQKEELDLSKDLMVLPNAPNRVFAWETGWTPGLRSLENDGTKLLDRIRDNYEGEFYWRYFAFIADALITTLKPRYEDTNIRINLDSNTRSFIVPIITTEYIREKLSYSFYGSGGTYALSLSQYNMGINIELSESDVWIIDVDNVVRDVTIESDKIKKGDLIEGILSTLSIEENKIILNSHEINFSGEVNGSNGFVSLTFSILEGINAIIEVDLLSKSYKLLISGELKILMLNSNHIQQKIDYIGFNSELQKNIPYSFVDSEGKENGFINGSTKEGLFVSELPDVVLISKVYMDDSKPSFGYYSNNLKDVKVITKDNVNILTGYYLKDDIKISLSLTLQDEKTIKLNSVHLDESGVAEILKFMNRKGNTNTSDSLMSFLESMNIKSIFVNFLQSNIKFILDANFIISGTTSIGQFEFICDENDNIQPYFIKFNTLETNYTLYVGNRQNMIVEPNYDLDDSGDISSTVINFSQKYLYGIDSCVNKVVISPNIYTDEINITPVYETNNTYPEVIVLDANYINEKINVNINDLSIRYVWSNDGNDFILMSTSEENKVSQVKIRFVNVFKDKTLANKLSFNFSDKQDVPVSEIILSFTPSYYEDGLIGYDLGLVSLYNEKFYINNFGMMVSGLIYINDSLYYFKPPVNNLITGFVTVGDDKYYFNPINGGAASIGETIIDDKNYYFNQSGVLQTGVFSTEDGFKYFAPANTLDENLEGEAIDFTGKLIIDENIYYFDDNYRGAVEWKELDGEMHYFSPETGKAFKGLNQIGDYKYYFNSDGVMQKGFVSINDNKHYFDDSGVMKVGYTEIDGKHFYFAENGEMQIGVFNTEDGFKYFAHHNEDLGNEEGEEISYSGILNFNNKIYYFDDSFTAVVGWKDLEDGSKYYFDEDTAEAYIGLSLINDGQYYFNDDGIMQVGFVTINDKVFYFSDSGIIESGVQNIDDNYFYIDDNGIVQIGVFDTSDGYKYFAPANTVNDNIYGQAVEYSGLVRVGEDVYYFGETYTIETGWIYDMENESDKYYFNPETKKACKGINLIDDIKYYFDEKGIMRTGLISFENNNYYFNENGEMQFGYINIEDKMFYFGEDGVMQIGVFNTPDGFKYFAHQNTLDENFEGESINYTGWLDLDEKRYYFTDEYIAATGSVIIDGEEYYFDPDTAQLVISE
cholera toxin, sequence (P01555 19-258, chain 1 of 2): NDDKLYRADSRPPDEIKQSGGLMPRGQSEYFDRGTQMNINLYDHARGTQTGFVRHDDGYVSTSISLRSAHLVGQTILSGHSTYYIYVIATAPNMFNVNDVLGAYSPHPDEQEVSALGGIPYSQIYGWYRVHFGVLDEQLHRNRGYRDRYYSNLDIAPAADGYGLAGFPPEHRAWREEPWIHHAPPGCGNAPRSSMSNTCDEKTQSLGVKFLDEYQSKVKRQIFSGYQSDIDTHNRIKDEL
cholera toxin, sequence (P01556 22-124, chain 2 of 2): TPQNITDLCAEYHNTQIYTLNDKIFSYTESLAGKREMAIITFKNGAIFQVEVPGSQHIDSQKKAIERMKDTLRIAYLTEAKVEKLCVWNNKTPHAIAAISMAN

B1: R12.06 (5'-amino-C6) (ssDNA)
DNA: TGTACCGTCTGAGCGATTCGTACGATTACTATAATTTCCTATCGTCCGACCGCCGTCAGCCAGTCAGTGTTAAGGAGTGC
modifications: 5' amino-C6
On to B1, for which the Kd (in general, the concentration at which binding is half-saturated) in data set [1] is 93.7 nM and 90.7 nM; in data set [2], 102 nM; in data set [3], 88.7 nM.

B2: R12.06 (FAM) (ssDNA)
DNA: B1 DNA
For B2, the binding signal with cholera toxin was 1.5 fold lower than alpha toxin; in data set [4] it was 1 relative to alpha toxin; in the data set with toxin B it was 5 fold lower than alpha toxin; with exotoxin A, 1.5 fold lower than alpha toxin.
